The record followed here is paper PMC11417369, “DNA sequence and chromatin differentiate sequence-specific transcription factor binding in the human malaria parasite Plasmodium falciparum”.

Changes are numbered by the printed parent chain.

B1: GTGCAC_site9467 (dsDNA)
DNA 1: AAATAATGAAACAAAGTGCATAAAAATATACATATA
DNA 2: TATATGTATATTTTTATGCACTTTGTTTCATTATTT
B2: GTGCAC_site10309 (dsDNA)
DNA 1: GTTAATTTTTGTATAGTGCAAAAATATAATAGTATG
DNA 2: CATACTATTATATTTTTGCACTATACAAAAATTAAC
B3: GTGCAC_site10289 (dsDNA)
DNA 1: TTTAAAATACAGAAGGTGCATTTAACATATTTGTAT
DNA 2: ATACAAATATGTTAAATGCACCTTCTGTATTTTAAA
B4: GTGCAC_site10268 (dsDNA)
DNA 1: TTTTTTGTTATTGGCGTGCACATATCCATTTATAGT
DNA 2: ACTATAAATGGATATGTGCACGCCAATAACAAAAAA
B5: GTGCAC_site10220 (dsDNA)
DNA 1: CATATAAAAAATATGGTGCAGTTTTTTTTTTTTTTT
DNA 2: AAAAAAAAAAAAAAACTGCACCATATTTTTTATATG
B6: GTGCAC_site10692 (dsDNA)
DNA 1: ATTATTTATATTATGGTGCATAATTTTGGGTTTCTT
DNA 2: AAGAAACCCAAAATTATGCACCATAATATAAATAAT
B7: GTGCAC_site9779 (dsDNA)
DNA 1: TTTTGTTATAATAAAGTGCATTTAGTCGGGTTACAA
DNA 2: TTGTAACCCGACTAAATGCACTTTATTATAACAAAA
B8: GTGCAC_site10026 (dsDNA)
DNA 1: ATATAAGTATTTTGAATGCACTTTCTTTTTTTTTTT
DNA 2: AAAAAAAAAAAGAAAGTGCATTCAAAATACTTATAT
B9: GTGCAC_site9494 (dsDNA)
DNA 1: TTGTTTTTAATATCGGTGCAATGGAAAGAAAAGAAG
DNA 2: CTTCTTTTCTTTCCATTGCACCGATATTAAAAACAA
B10: GTGCAC_site9626 (dsDNA)
DNA 1: TTTATTAATAAAAAGGTGCAATCAGGAAAAATTATC
DNA 2: GATAATTTTTCCTGATTGCACCTTTTTATTAATAAA
B11: GTGCAC_site9543 (dsDNA)
DNA 1: CAATATTTGTTATGGGTGCAAACCGCATATATATAA
DNA 2: TTATATATATGCGGTTTGCACCCATAACAAATATTG
B12: GTGCAC_site9428 (dsDNA)
DNA 1: B11 DNA 1 with C1A, T6G, G25A
DNA 2: B11 DNA 2 with C12T, A31C, G36T
B13: GTGCAC_site9804 (dsDNA)
DNA 1: TCAAAAGAATAATTGGTGCAAATTATATAATATAAT
DNA 2: ATTATATTATATAATTTGCACCAATTATTCTTTTGA
B14: GTGCAC_site10687 (dsDNA)
DNA 1: TATATATATTATATAGTGCATTGAAGAAGGGGATTT
DNA 2: AAATCCCCTTCTTCAATGCACTATATAATATATATA
B15: GTGCAC_site10204 (dsDNA)
DNA 1: GGAAAATACATTCCAGTGCATTAATTTATTCAACGT
DNA 2: ACGTTGAATAAATTAATGCACTGGAATGTATTTTCC
B16: GTGCAC_site9873 (dsDNA)
DNA 1: CCCTCCCCATGTTTAGTGCAAAAATATTTGAAATTG
DNA 2: CAATTTCAAATATTTTTGCACTAAACATGGGGAGGG
B17: GTGCAC_site10322 (dsDNA)
DNA 1: TTTTTTTTTTTGTGAGTGCACGTATGAAGAGAAAAA
DNA 2: TTTTTCTCTTCATACGTGCACTCACAAAAAAAAAAA
B18: GTGCAC_site10615 (dsDNA)
DNA 1: ATTTTTTTTGTAAAAGTGCATATATATATATATATA
DNA 2: TATATATATATATATATGCACTTTTACAAAAAAAAT
B19: GTGCAC_site9938 (dsDNA)
DNA 1: GAATTATAAATTATAGTGCATAAAATTATGGCATAA
DNA 2: TTATGCCATAATTTTATGCACTATAATTTATAATTC
B20: GTGCAC_site9995 (dsDNA)
DNA 1: AAAGGAAAAATCCAAGTGCATTATTATTTTCACAAA
DNA 2: TTTGTGAAAATAATAATGCACTTGGATTTTTCCTTT
B21: GTGCAC_site10317 (dsDNA)
DNA 1: TTATATTTTCTCCGCGTGCACATATGTATACTATAC
DNA 2: GTATAGTATACATATGTGCACGCGGAGAAAATATAA
B22: GTGCAC_site10102 (dsDNA)
DNA 1: TATATTTATATATTAGTGCACTTTTTGTTAATTTTT
DNA 2: AAAAATTAACAAAAAGTGCACTAATATATAAATATA
B23: GTGCAC_site9423 (dsDNA)
DNA 1: ACACATACACATTAGGTGCATATATTTCAATATTAC
DNA 2: GTAATATTGAAATATATGCACCTAATGTGTATGTGT
B24: GTGCAC_site10781 (dsDNA)
DNA 1: ACATTTTTGGTTTTAGTGCAATATGAATTATTTTAT
DNA 2: ATAAAATAATTCATATTGCACTAAAACCAAAAATGT
B25: GTGCAC_site9746 (dsDNA)
DNA 1: TATAATTAATTAGAAGTGCATTAGGTAACAACTGTC
DNA 2: GACAGTTGTTACCTAATGCACTTCTAATTAATTATA
B26: GTGCAC_site10266 (dsDNA)
DNA 1: TCTTAAAATATATAGGTGCAAAAAAAAAAAAAAAAA
DNA 2: TTTTTTTTTTTTTTTTTGCACCTATATATTTTAAGA
B27: GTGCAC_site10240 (dsDNA)
DNA 1: CTTTTAGAATAATCAGTGCAAAAAAAAAAAAAAAAA
DNA 2: TTTTTTTTTTTTTTTTTGCACTGATTATTCTAAAAG
B28: GTGCAC_site10217 (dsDNA)
DNA 1: ATATATTTTTGTAGTGTGCACGTTTATATGGTGAAA
DNA 2: TTTCACCATATAAACGTGCACACTACAAAAATATAT
B29: GTGCAC_site9462 (dsDNA)
DNA 1: AACTGTACAATTTTTGTGCACAATAATTATTAATAT
DNA 2: ATATTAATAATTATTGTGCACAAAAATTGTACAGTT
B30: GTGCAC_site10474 (dsDNA)
DNA 1: TTTTTTGTTACAACAGTGCAAAAAAACCTTAATGTT
DNA 2: AACATTAAGGTTTTTTTGCACTGTTGTAACAAAAAA
B31: GTGCAC_site10675 (dsDNA)
DNA 1: GTAGTTATATTAAGGGTGCTTAATTAGATTAAACAA
DNA 2: TTGTTTAATCTAATTAAGCACCCTTAATATAACTAC
B32: GTGCAC_site9508 (dsDNA)
DNA 1: TAATAAAAAGTTGAGGTGCATATAGAGTTCTTCTTT
DNA 2: AAAGAAGAACTCTATATGCACCTCAACTTTTTATTA
B33: GTGCAC_site9491 (dsDNA)
DNA 1: AATAATAAAATAAAAGTGCATTAATTATAATTCTTT
DNA 2: AAAGAATTATAATTAATGCACTTTTATTTTATTATT
B34: GTGCAC_site9648 (dsDNA)
DNA 1: ATAATTTCACAAATAGTGCAAAAATTAGTAAGAATA
DNA 2: TATTCTTACTAATTTTTGCACTATTTGTGAAATTAT
B35: GTGCAC_site10697 (dsDNA)
DNA 1: AATATTTCTCATTTTGTGCACTGAAAAATGTAATAT
DNA 2: ATATTACATTTTTCAGTGCACAAAATGAGAAATATT
B36: GTGCAC_site10062 (dsDNA)
DNA 1: TCTATTTTCTTATGAATGCACTAATTTATAAAACGT
DNA 2: ACGTTTTATAAATTAGTGCATTCATAAGAAAATAGA
B37: GTGCAC_site10398 (dsDNA)
DNA 1: AAATACTTATTCGTGGTGCAACAATTTTAAAAATTA
DNA 2: TAATTTTTAAAATTGTTGCACCACGAATAAGTATTT
B38: GTGCAC_site10494 (dsDNA)
DNA 1: AATATATAGGAAAAAGTGCAATAAATGAACAAAATA
DNA 2: TATTTTGTTCATTTATTGCACTTTTTCCTATATATT
B39: GTGCAC_site9974 (dsDNA)
DNA 1: ATATGAAGTTATATAGTGCACATGTACAACCAAATC
DNA 2: GATTTGGTTGTACATGTGCACTATATAACTTCATAT
B40: GTGCAC_site9926 (dsDNA)
DNA 1: GCAGCAGCATTTTCAGTGCATTATTATATTGTTCAT
DNA 2: ATGAACAATATAATAATGCACTGAAAATGCTGCTGC
B41: GTGCAC_site9417 (dsDNA)
DNA 1: TAATATTATTTTTCAGTGCAATATAACCTTAGAATT
DNA 2: AATTCTAAGGTTATATTGCACTGAAAAATAATATTA
B42: GTGCAC_site10757 (dsDNA)
DNA 1: TATTAATTTCGGGAAGTGCATTATGTTTATAGAATA
DNA 2: TATTCTATAAACATAATGCACTTCCCGAAATTAATA

The series addresses AP2-I D3 (Plasmodium falciparum, UniProt Q8IJW6 910-1027). As to the kind of experiment: gcPBM; about 25 ug protein; PBS, 1% milk, 0.2 mg/ml BSA, salmon testes DNA, 0.03% Triton X-100. The conditions noted are these: tags: N-terminal GST (pGEX-4T-1), kept; label: surface-attached array probe.
As for B1, the binding signal was 10.6 ln median PBM intensity, better of two orientations.
The figure for B2 is 10.6 ln median PBM intensity, better of two orientations.
In the case of B3 it was 11.6 ln median PBM intensity, better of two orientations.
The figure for B4 is 10.4 ln median PBM intensity, better of two orientations; for B5 it is 10.3 ln median PBM intensity, better of two orientations; for B6 it is 11.6 ln median PBM intensity, better of two orientations.
With B7, the binding signal is 10.4 ln median PBM intensity, better of two orientations.
In the case of B8, the binding signal is 10.5 ln median PBM intensity, better of two orientations.
The figure for B9 is 10.2 ln median PBM intensity, better of two orientations; for B10 it is 10.7 ln median PBM intensity, better of two orientations; for B11 it is 10.3 ln median PBM intensity, better of two orientations.
In the case of B12 it was 10.2 ln median PBM intensity, better of two orientations.
In the case of B13 it was 10.8 ln median PBM intensity, better of two orientations; in that of B14, 11.1 ln median PBM intensity, better of two orientations.
As to B15, the binding signal is 11.8 ln median PBM intensity, better of two orientations.
The figure for B16 is 10.9 ln median PBM intensity, better of two orientations; for B17 it is 11.2 ln median PBM intensity, better of two orientations.
The figure for B18 is 10.5 ln median PBM intensity, better of two orientations; for B19 it is 10.8 ln median PBM intensity, better of two orientations; for B20 it is 11.4 ln median PBM intensity, better of two orientations.
In the case of B21 it was 10.2 ln median PBM intensity, better of two orientations; in that of B22, 11.8 ln median PBM intensity, better of two orientations.
Take B23: the binding signal is 10.6 ln median PBM intensity, better of two orientations.
In the case of B24, the binding signal was 11 ln median PBM intensity, better of two orientations.
Regarding B25, the binding signal was 11.5 ln median PBM intensity, better of two orientations.
In the case of B26 it was 10.9 ln median PBM intensity, better of two orientations.
The figure for B27 is 10.1 ln median PBM intensity, better of two orientations.
In the case of B28 it was 10.5 ln median PBM intensity, better of two orientations; in that of B29, 11.3 ln median PBM intensity, better of two orientations; in that of B30, 10.2 ln median PBM intensity, better of two orientations.
B31: the binding signal is 10.8 ln median PBM intensity, better of two orientations.
The figure for B32 is 10.5 ln median PBM intensity, better of two orientations; for B33 it is 11.9 ln median PBM intensity, better of two orientations.
B34: the binding signal was 10.3 ln median PBM intensity, better of two orientations.
In the case of B35 it was 11 ln median PBM intensity, better of two orientations; in that of B36, 10.8 ln median PBM intensity, better of two orientations.
The figure for B37 is 10.4 ln median PBM intensity, better of two orientations; for B38 it is 11.3 ln median PBM intensity, better of two orientations; for B39 it is 11.4 ln median PBM intensity, better of two orientations.
The figure for B40 is 11.6 ln median PBM intensity, better of two orientations; for B41 it is 11.3 ln median PBM intensity, better of two orientations; for B42 it is 11.7 ln median PBM intensity, better of two orientations.
